Measured values from the supplement of paper PMC11316812.
± gives the standard deviation of the averaged measurements.

Assays:
MCF7 = test: percentage of EdU-negative (G0-arrested) nuclei per well, 72 h; higher = more G0 arrest; details: reference: sequence is the full UniProt precursor, the tested protein was the secreted form or ectodomain
hTERT-HMEC = test: as above; details: reference: sequence is the full UniProt precursor, the tested protein was the secreted form or ectodomain
[1] = protein concentration 0.0225 µM
[2] = protein concentration 0.01375 µM
[3] = protein concentration 0.1375 µM
[4] = protein concentration 0.0115 µM
[5] = protein concentration 0.03125 µM
[6] = protein concentration 0.3125 µM
[7] = protein concentration 0.009215 µM
[8] = protein concentration 0.09215 µM
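Also: secreted proteins added to cultured cells, EdU pulse at the end, nuclei found by Hoechst imaging, EdU status from nuclear versus surrounding ring intensity ratio, PBS as neutral control.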

| Sequence | percentage of EdU-negative (MCF7; [1]) | percentage of EdU-negative (MCF7; protein concentration 0.225 µM) | percentage of EdU-negative (hTERT-HMEC; [1]) | percentage of EdU-negative (hTERT-HMEC; protein concentration 0.225 µM) | further results |
| --- | --- | --- | --- | --- | --- |
| MPGPSPGLRRALLGLWAALGLGLFGLSAVSQEPFWADLQPRVAFVERGGSLWLNCSTNCPRPERGGLETSLRRNGTQRGLRWLARQLVDIREPETQPVCFFRCARRTLQARGLIRTFQRPDRVELMPLPPWQPVGENFTLSCRVPGAGPRASLTLTLLRGAQELIRRSFAGEPPRARGAVLTATVLARREDHGANFSCRAELDLRPHGLGLFENSSAPRELRTFSLSPDAPRLAAPRLLEVGSERPVSCTLDGLFPASEARVYLALGDQNLSPDVTLEGDAFVATATATASAEQEGARQLVCNVTLGGENRETRENVTIYSFPAPLLTLSEPSVSEGQMVTVTCAAGAQALVTLEGVPAAVPGQPAQLQLNATENDDRRSFFCDATLDVDGETLIKNRSAELRVLYAPRLDDSDCPRSWTWPEGPEQTLRCEARGNPEPSVHCARSDGGAVLALGLLGPVTRALSGTYRCKAANDQGEAVKDVTLTVEYAPALDSVGCPERITWLEGTEASLSCVAHGVPPPDVICVRSGELGAVIEGLLRVAREHAGTYRCEATNPRGSAAKNVAVTVEYGPRFEEPSCPSNWTWVEGSGRLFSCEVDGKPQPSVKCVGSGGATEGVLLPLAPPDPSPRAPRIPRVLAPGIYVCNATNRHGSVAKTVVVSAESPPEMDESTCPSHQTWLEGAEASALACAARGRPSPGVRCSREGIPWPEQQRVSREDAGTYHCVATNAHGTDSRTVTVGVEYRPVVAELAASPPGGVRPGGNFTLTCRAEAWPPAQISWRAPPGALNIGLSSNNSTLSVAGAMGSHGGEYECAATNAHGRHARRITVRVAGPWLWVAVGGAAGGAALLAAGAGLAFYVQSTACKKGEYNVQEAESSGEAVCLNGAGGGAGGAAGAEGGPEAAGGAAESPAEGEVFAIQLTSA [Q9UMF0] |  |  |  |  | percentage of EdU-negative (MCF7; protein concentration 0.015 µM): 26.9 ± 2.4%; percentage of EdU-negative (MCF7; protein concentration 0.15 µM): 36.9 ± 2.7%; percentage of EdU-negative (hTERT-HMEC; protein concentration 0.015 µM): 5.32 ± 0.067%; percentage of EdU-negative (hTERT-HMEC; protein concentration 0.15 µM): 90.88 ± 0.53% |
| MAVAAAAAAAGPAGAGGGRAQRSGLLEVLVRDRWHKVLVNLSEDALVLSSEEGAAAYNGIGTATNGSFCRGAGAGHPGAGGAQPPDSPAGVRTAFTDLPEQVPESISNQKRGVKVLKQELGGLGISIKGGKENKMPILISKIFKGLAADQTQALYVGDAILSVNGADLRDATHDEAVQALKRAGKEVLLEVKYMREATPYVKKGSPVSEIGWETPPPESPRLGGSTSDPPSSQSFSFHRDRKSIPLKMCYVTRSMALADPENRQLEIHSPDAKHTVILRSKDSATAQAWFSAIHSNVNDLLTRVIAEVREQLGKTGIAGSREIRHLGWLAEKVPGESKKQWKPALVVLTEKDLLIYDSMPRRKEAWFSPVHTYPLLATRLVHSGPGKGSPQAGVDLSFATRTGTRQGIETHLFRAETSRDLSHWTRSIVQGCHNSAELIAEISTACTYKNQECRLTIHYENGFSITTEPQEGAFPKTIIQSPYEKLKMSSDDGIRMLYLDFGGKDGEIQLDLHSCPKPIVFIIHSFLSAKITRLGLVA | 27.8 ± 2.2% | 25.6 ± 0.97% | 4.71 ± 0.2% | 6.28 ± 0.64% |  |
| MAAPGSARRPLLLLLLLLLLGLMHCASAAMFMVKNGNGTACIMANFSAAFSVNYDTKSGPKNMTFDLPSDATVVLNRSSCGKENTSDPSLVIAFGRGHTLTLNFTRNATRYSVQLMSFVYNLSDTHLFPNASSKEIKTVESITDIRADIDKKYRCVSGTQVHMNNVTVTLHDATIQAYLSNSSFSRGETRCEQDRPSPTTAPPAPPSPSPSPVPKSPSVDKYNVSGTNGTCLLASMGLQLNLTYERKDNTTVTRLLNINPNKTSASGSCGAHLVTLELHSEGTTVLLFQFGMNASSSRFFLQGIQLNTILPDARDPAFKAANGSLRALQATVGNSYKCNAEEHVRVTKAFSVNIFKVWVQAFKVEGGQFGSVEECLLDENSMLIPIAVGGALAGLVLIVLIAYLVGRKRSHAGYQTI | 27.7 ± 2.6% | 28.6 ± 2.1% | 4.801 ± 0.044% | 7.68 ± 1.6% |  |
| MKPVLPLQFLVVFCLALQLVPGSPKQRVLKYILEPPPCISAPENCTHLCTMQEDCEKGFQCCSSFCGIVCSSETFQKRNRIKHKGSEVIMPAN [Q8IUB5] | 25.88 ± 0.11% | 23.6 ± 1% | 4.99 ± 0.22% | 5.21 ± 0.23% |  |
| MQQPFNYPYPQIYWVDSSASSPWAPPGTVLPCPTSVPRRPGQRRPPPPPPPPPLPPPPPPPPLPPLPLPPLKKRGNHSTGLCLLVMFFMVLVALVGLGLGMFQLFHLQKELAELRESTSQMHTASSLEKQIGHPSPPPEKKELRKVAHLTGKSNSRSMPLEWEDTYGIVLLSGVKYKKGGLVINETGLYFVYSKVYFRGQSCNNLPLSHKVYMRNSKYPQDLVMMEGKMMSYCTTGQMWARSSYLGAVFNLTSADHLYVNVSELSLVNFEESQTFFGLYKL | 25.2 ± 0.97% | 29 ± 2.4% | 4.44 ± 0.26% | 7.46 ± 2.2% |  |
| MRARRGLLRLPRRSLLAALFFFSLSSSLLYFVYVAPGIVNTYLFMMQAQGILIRDNVRTIGAQVYEQVLRSAYAKRNSSVNDSDYPLDLNHSETFLQTTTFLPEDFTYFANHTCPERLPSMKGPIDINMSEIGMDYIHELFSKDPTIKLGGHWKPSDCMPRWKVAILIPFRNRHEHLPVLFRHLLPMLQRQRLQFAFYVVEQVGTQPFNRAMLFNVGFQEAMKDLDWDCLIFHDVDHIPESDRNYYGCGQMPRHFATKLDKYMYLLPYTEFFGGVSGLTVEQFRKINGFPNAFWGWGGEDDDLWNRVQNAGYSVSRPEGDTGKYKSIPHHHRGEVQFLGRYALLRKSKERQGLDGLNNLNYFANITYDALYKNITVNLTPELAQVNEY |  |  |  |  | percentage of EdU-negative (MCF7; protein concentration 0.016 µM): 24.5 ± 0.93%; percentage of EdU-negative (MCF7; protein concentration 0.16 µM): 30.8 ± 1.6%; percentage of EdU-negative (hTERT-HMEC; protein concentration 0.016 µM): 5.58 ± 0.37%; percentage of EdU-negative (hTERT-HMEC; protein concentration 0.16 µM): 20.8 ± 1.2% |
| MSGAPTAGAALMLCAATAVLLSAQGGPVQSKSPRFASWDEMNVLAHGLLQLGQGLREHAERTRSQLSALERRLSACGSACQGTEGSTDLPLAPESRVDPEVLHSLQTQLKAQNSRIQQLFHKVAQQQRHLEKQHLRIQHLQSQFGLLDHKHLDHEVAKPARRKRLPEMAQPVDPAHNVSRLHRLPRDCQELFQVGERQSGLFEIQPQGSPPFLVNCKMTSDGGWTVIQRRHDGSVDFNRPWEAYKAGFGDPHGEFWLGLEKVHSITGDRNSRLAVQLRDWDGNAELLQFSVHLGGEDTAYSLQLTAPVAGQLGATTVPPSGLSVPFSTWDQDHDLRRDKNCAKSLSGGWWFGTCSHSNLNGQYFRSIPQQRQKLKKGIFWKTWRGRYYPLQATTMLIQPMAAEAAS [Q9BY76] |  |  |  |  | percentage of EdU-negative (MCF7; [2]): 23.9 ± 1.8%; percentage of EdU-negative (MCF7; [3]): 27.4 ± 1.9%; percentage of EdU-negative (hTERT-HMEC; [2]): 5.28 ± 0.74%; percentage of EdU-negative (hTERT-HMEC; [3]): 6.14 ± 0.59% |
| MARFWVCVAGAGFFLAFLVLHSRFCGSPVLRNFTFAVSWRTEKILYRLDVGWPKHPEYFTGTTFCVAVDSLNGLVYIGQRGDNIPKILVFTEDGYFLRAWNYTVDTPHGIFAASTLYEQSVWITDVGSGFFGHTVKKYSSFGDLVQVLGTPGKKGTSLNPLQFDNPAELYVEDTGDIYIVDGDGGLNNRLIKLSQDFMILWLHGENGTGPAKFNIPHSVTLDSAGRVWVADRGNKRIQVFDKDTGEWLGAWNNCFTEEGPSSVRFTPDGKYLIVAQLNLSRLSVVAAPPVGSIGECSVISTIQLADQVLPHLLEVDRKTGAVYVAEIGAKQVQKYVPLNSYVPSFGS [Q5JS37] |  |  |  |  | percentage of EdU-negative (MCF7; [4]): 26.8 ± 0.58%; percentage of EdU-negative (MCF7; protein concentration 0.115 µM): 29.3 ± 1.4%; percentage of EdU-negative (hTERT-HMEC; [4]): 4.82 ± 0.15%; percentage of EdU-negative (hTERT-HMEC; protein concentration 0.115 µM): 16.1 ± 0.13% |
| MLLSVPLLLGLLGLAVAEPAVYFKEQFLDGDGWTSRWIESKHKSDFGKFVLSSGKFYGDEEKDKGLQTSQDARFYALSASFEPFSNKGQTLVVQFTVKHEQNIDCGGGYVKLFPNSLDQTDMHGDSEYNIMFGPDICGPGTKKVHVIFNYKGKNVLINKDIRCKDDEFTHLYTLIVRPDNTYEVKIDNSQVESGSLEDDWDFLPPKKIKDPDASKPEDWDERAKIDDPTDSKPEDWDKPEHIPDPDAKKPEDWDEEMDGEWEPPVIQNPEYKGEWKPRQIDNPDYKGTWIHPEIDNPEYSPDPSIYAYDNFGVLGLDLWQVKSGTIFDNFLITNDEAYAEEFGNETWGVTKAAEKQMKDKQDEEQRLKEEEEDKKRKEEEEAEDKEDDEDKDEDEEDEEDKEEDEEEDVPGQAKDEL | 21.8 ± 0.44% | 28.2 ± 2.5% | 5.2 ± 0.44% | 15.5 ± 2.6% |  |
| MEQWDHFHNQQEDTDSCSESVKFDARSMTALLPPNPKNSPSLQEKLKSFKAALIALYLLVFAVLIPLIGIVAAQLLKWETKNCSVSSTNANDITQSLTGKGNDSEEEMRFQEVFMEHMSNMEKRIQHILDMEANLMDTEHFQNFSMTTDQRFNDILLQLSTLFSSVQGHGNAIDEISKSLISLNTTLLDLQLNIENLNGKIQENTFKQQEEISKLEERVYNVSAEIMAMKEEQVHLEQEIKGEVKVLNNITNDLRLKDWEHSQTLRNITLIQGPPGPPGEKGDRGPTGESGPRGFPGPIGPPGLKGDRGAIGFPGSRGLPGYAGRPGNSGPKGQKGEKGSGNTLTPFTKVRLVGGSGPHEGRVEILHSGQWGTICDDRWEVRVGQVVCRSLGYPGVQAVHKAAHFGQGTGPIWLNEVFCFGRESSIEECKIRQWGTRACSHSEDAGVTCTL | 27.3 ± 1.6% | 25.4 ± 1.7% | 5.16 ± 0.032% | 5.23 ± 1.7% |  |
| MRIWWLLLAIEICTGNINSQDTCRQGHPGIPGNPGHNGLPGRDGRDGAKGDKGDAGEPGRPGSPGKDGTSGEKGERGADGKVEAKGIKGDQGSRGSPGKHGPKGLAGPMGEKGLRGETGPQGQKGNKGDVGPTGPEGPRGNIGPLGPTGLPGPMGPIGKPGPKGEAGPTGPQGEPGVRGIRGWKGDRGEKGKIGETLVLPKSAFTVGLTVLSKFPSSDMPIKFDKILYNEFNHYDTAAGKFTCHIAGVYYFTYHITVFSRNVQVSLVKNGVKILHTKDAYMSSEDQASGGIVLQLKLGDEVWLQVTGGERFNGLFADEDDDTTFTGFLLFSSP [P0C862] |  |  |  |  | percentage of EdU-negative (MCF7; [5]): 28.2 ± 0.72%; percentage of EdU-negative (MCF7; [6]): 30.09 ± 0.089%; percentage of EdU-negative (hTERT-HMEC; [5]): 5.3 ± 0.76%; percentage of EdU-negative (hTERT-HMEC; [6]): 7.183 ± 0.018% |
| MDSYLLMWGLLTFIMVPGCQAELCDDDPPEIPHATFKAMAYKEGTMLNCECKRGFRRIKSGSLYMLCTGNSSHSSWDNQCQCTSSATRNTTKQVTPQPEEQKERKTTEMQSPMQPVDQASLPGHCREPPPWENEATERIYHFVVGQMVYYQCVQGYRALHRGPAESVCKMTHGKTRWTQPQLICTGEMETSQFPGEEKPQASPEGRPESETSCLVTTTDFQIQTEMAATMETSIFTTEYQVAVAGCVFLLISVLLLSGLTWQRRQRKSRRTI | 24.6 ± 0.99% | 25.4 ± 1.9% | 4.53 ± 0.75% | 7.02 ± 0.61% |  |
| MFWKLSLSLFLVAVLVKVAEARKNRPAGAIPSPYKDGSSNNSERWQHQIKEVLASSQEALVVTERKYLKSDWCKTQPLRQTVSEEGCRSRTILNRFCYGQCNSFYIPRHVKKEEESFQSCAFCKPQRVTSVLVELECPGLDPPFRLKKIQKVKQCRCMSVNLSDSDKQ [Q9H772] |  |  |  |  | percentage of EdU-negative (MCF7; [7]): 22.3 ± 1.6%; percentage of EdU-negative (MCF7; [8]): 27.2 ± 0.92%; percentage of EdU-negative (hTERT-HMEC; [7]): 5.28 ± 0.078%; percentage of EdU-negative (hTERT-HMEC; [8]): 5.14 ± 0.38% |
